Experimental data reported in article PMC1669725.

Biological target: Sp1 zinc-finger DNA-binding domain (truncated Sp1) (UniProt P08047 619-774)
Test: fluorescence correlation spectroscopy

Chain of Sp1 zinc-finger DNA-binding domain (truncated Sp1) (P08047 619-774): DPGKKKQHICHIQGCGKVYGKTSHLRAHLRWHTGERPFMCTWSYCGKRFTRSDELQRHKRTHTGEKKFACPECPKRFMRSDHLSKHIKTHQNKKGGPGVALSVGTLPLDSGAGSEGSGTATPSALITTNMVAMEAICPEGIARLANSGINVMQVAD

B1: HIV LTR Sp1 site 23 bp (dsDNA)
DNA 1: ACTTTCCAGGGAGGCGTGGCCTG
DNA 2: CAGGCCACGCCTCCCTGGAAAGT
For B1, which Kd is on record?
Its Kd is 32 ± 2 nM.
